Test [1] addresses G-CSFR (Homo sapiens) (UniProt Q99062). Briefly: ITC. To be noted: cited from earlier work.
Test [2] shares this target. Briefly: SPR. The conditions noted are these: cited from earlier work.
Test [3] addresses T1, G-CSF Receptor (G-CSFR) (human, UniProt Q99062 25-333).
T1 construct: G-CSF receptor (G-CSFR), human, bought recombinant protein; In the functional rows the receptor is the one on the cells of the test (murine NFS-60 or human CD34+ HSPCs); also called human G-CSFR; human G-CSF receptor; source: bought: R&D systems 381-GR-050/CF
T1 sequence: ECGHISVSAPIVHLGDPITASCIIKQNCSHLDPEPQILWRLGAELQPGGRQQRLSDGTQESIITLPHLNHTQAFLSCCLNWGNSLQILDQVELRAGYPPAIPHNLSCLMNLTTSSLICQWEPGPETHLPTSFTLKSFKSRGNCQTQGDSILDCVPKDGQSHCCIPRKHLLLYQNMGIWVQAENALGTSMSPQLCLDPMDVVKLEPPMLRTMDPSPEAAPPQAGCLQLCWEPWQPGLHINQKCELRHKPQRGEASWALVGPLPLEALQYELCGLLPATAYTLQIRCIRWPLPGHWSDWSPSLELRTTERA
The test is described as follows: SPR; G-CSFR amine-coupled on a CM5 chip (Biacore X100), analytes flowed over, multi-cycle kinetics, 25 °C, 10 mM HEPES pH 7.4, 150 mM NaCl, 3.4 mM EDTA, 0.005% Tween-20; 1:1 model, linear fit of kobs against concentration; legend speaks of apparent affinity for the bivalent ligands. The conditions noted are these: both partners purified. (Surface plasmon resonance follows binding to a sensor surface in real time, without labels.)

In the case of G-CSF (from UniProt P09919), the Kd in test [1] was 1.4 nM; in test [2], 0.2 nM.

B1: Recombinant human G-CSF (rhG-CSF), USP RS Filgrastim (ligand, UniProt P09919-2 31-204, looked up)
chain: TPLGPASSLPQSFLLKCLEQVRKIQGDGAALQEKLCATYKLCHPEELVLLGHSLGIPWAPLSSCPSQALQLAGCLSQLHSGLFLYQGLLQALEGISPELGPTLDTLQLDVADFATTIWQQMEELGMAPALQPTQGAMPAFASAFQRRAGGVLVASHLQSFLEVSYRVLRHLAQP
notes: granulocyte-colony stimulating factor (G-CSF), human, recombinant; printed length 174 amino acids; also called granulocyte-colony stimulating factor; wild-type G-CSF; source: bought: USP RS Filgrastim, Sigma-Aldrich 1270435
As for B1, in test [3], the Kd was 1.1 nM, the koff (usually the first-order rate constant of dissociation) stood at 0.00049 s⁻¹ and the kon (commonly the rate constant with which the complex forms) stood at 300000 M⁻¹ s⁻¹.

Source of the values: paper PMC9135769, “A topological refactoring design strategy yields highly stable granulopoietic proteins” (Nature Communications, 2022).
